The text below walks through data of patent publication US20190233528A1 (published 2019).

The target in assay [1] is T1, human CD70 expressed on parental (WT) Jurkat cells (human, UniProt P32970 1-193).
T1 sequence: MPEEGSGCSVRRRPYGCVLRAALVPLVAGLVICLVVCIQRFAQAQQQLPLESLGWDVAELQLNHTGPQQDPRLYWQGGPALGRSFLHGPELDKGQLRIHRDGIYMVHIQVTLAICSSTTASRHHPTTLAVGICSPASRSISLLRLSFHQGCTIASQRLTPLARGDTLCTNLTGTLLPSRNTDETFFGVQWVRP
Nature of the assay: cell-based or functional assay.

Assay [2] concerns the target T2, recombinant biotinylated human CD70 protein (human, UniProt P32970 39-193, biotinylated (site not stated)).
T2 construct: also called recombinant biotinylated hCD70 protein
T2 sequence: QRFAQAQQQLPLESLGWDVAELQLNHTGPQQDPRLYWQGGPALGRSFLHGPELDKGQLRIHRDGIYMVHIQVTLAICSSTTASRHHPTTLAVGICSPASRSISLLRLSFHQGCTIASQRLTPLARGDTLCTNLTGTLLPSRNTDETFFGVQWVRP
Nature of the assay: flow cytometry: CAR-transduced Jurkat cells incubated with recombinant biotinylated human CD70, streptavidin-PE; percent of cells binding. As to the method: On Day 5, transduced cells were stained with human anti-CD69 antibody conjugated to PE-Cy7 and acquired on a flow cytometer to obtain percentage of CD69+ population for each CAR. […] Activation ratios (WT activation/KO activation) and protein binding were used to rank CARs.
Activation ratio and protein binding of hybridoma CARs were determined in the Jurkat screen and used for in vitro characterization of CARs. Activation ratio was determined by calculating the ratio of the percentage of CD69 expression on WT Jurkat cells transduced with CD70 CAR (WT) to that on CD70 knockout Jurkat cells transduced with CD70 CAR (KO). A higher activation ratio indicates target-dependent activation. […] Protein binding values indicate the percentage of CD3+ CAR T cells that bind to human CD70 protein.

The target of assay [3] is T3, recombinant human CD70 (AviTag, polyhistidine tag and chicken tenascin trimerization domain fused to the … (chicken; human, UniProt P10039 110-139, limits assumed).
T3 construct: domain: trimerization domain; Expressed in Expi293, purified by IMAC and SEC; Copies 3 is inferred from the trimerization domain; not shown: AviTag; polyhistidine tag
T3 sequence: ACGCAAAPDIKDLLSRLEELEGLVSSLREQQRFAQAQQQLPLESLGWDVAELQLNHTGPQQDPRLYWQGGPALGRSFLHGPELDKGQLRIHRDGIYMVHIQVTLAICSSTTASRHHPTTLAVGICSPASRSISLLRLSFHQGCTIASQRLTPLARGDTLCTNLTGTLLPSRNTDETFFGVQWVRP
Briefly: SPR (Biacore 8K, 37 C): CD70 captured via anti-AviTag antibody on C1 chip, scFv-Fc as analyte; 1:1 steady state affinity fit (SS KD). The method, then:
The antibody binding kinetics were determined by surface plasmon resonance (Biacore 8K, GE Healthcare Bio-Sciences, Pittsburgh Pa.) at 37° C. in HBS-T+ (0.01 M HEPES pH 7.4, 0.15 M NaCl, 0.05% v/v Tween20, 1 mg/mL BSA). Recombinant human CD70 diluted in HBS-T+ was captured on a C1 chip immobilized with an anti-AviTag™ antibody. Purified anti-CD70 scFv-Fc fusions were serially diluted into HBS-T+, injected at 30 uL/min for 2-4 min, dissociation monitored for 10 min then the surface regenerated with 75 mM phosphoric acid between injections. Buffer cycles were collected for each anti-CD70 scFv-Fc fusion for double-referencing purposes (double-referencing as described in Myszka, D. G. Improving biosensor analysis. J. Mol. Recognit. 12, 279-284 (1999)). Kinetic association rates (kₒₙ) and dissociation rates (koff) were obtained simultaneously by fitting the double-referenced sensorgrams globally to a 1:1 Langmuir with mass transport model using Biacore 8K Evaluation Software (GE Healthcare Bio-Sciences, Pittsburgh Pa.) then used to calculate an equilibrium dissociation constant (KD) from the kinetic rate constants (KD=koff/kₒₙ). The data was fit to a 1:1 steady state affinity model using Biacore 8K Evaluation Software to determine a steady state equilibrium dissociation constant (SS KD) as needed.

Assay [4] deals with T4, recombinant biotinylated human CD70 protein (human) (UniProt P32970).
T4 sequence (chain, biotinylated (site not stated)): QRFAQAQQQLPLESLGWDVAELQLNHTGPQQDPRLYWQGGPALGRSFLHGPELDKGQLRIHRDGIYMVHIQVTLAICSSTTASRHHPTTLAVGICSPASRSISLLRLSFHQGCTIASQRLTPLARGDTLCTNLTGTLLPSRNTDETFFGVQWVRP
Nature of the assay: flow cytometry: CAR-transduced Jurkat cells incubated with recombinant biotinylated human CD70, streptavidin-PE; percent of cells binding.

B1: 4F11 CD70-specific CAR (other)
chain: QVTLKESGPVLVKPTETLTLTCTVSGFSLSNARMGVTWIRQPPGKALEWLAHIFSNDEKSYSTSLKSRLTISKDTSKTQVVLTMTNMDPVDTATYYCARIRDYYDISSYYDYWGQGTLVSVSSGGGGSGGGGSGGGGSGGGGSDIQMTQSPSAMSASVGDRVTITCRASQDISNYLAWFQQKPGKVPKRLIYAASSLQSGVPSRFSGSGSGTEFTLTISSLLPEDFATYYCLQLNSFPFTFGGGTKVEINTTTPAPRPPTPAPTIASQPLSLRPEACRPAAGGAVHTRGLDFACDIYIWAPLAGTCGVLLLSLVITLYCKRGRKKLLYIFKQPFMRPVQTTQEEDGCSCRFPEEEEGGCELRVKFSRSADAPAYQQGQNQLYNELNLGRREEYDVLDKRRGRDPEMGGKPRRKNPQEGLYNELQKDKMAEAYSEIGMKGERRRGKGHDGLYQGLSTATKDTYDALHMQALPPR
notes: Chimeric antigen receptor on transduced Jurkat cells; the signal peptide is left out
B1: in assay [1], the “Activation ratio (WT/KO)” value is 11.9. In assay [2], the “Protein binding (%)” value came to 47.1%.

B2: 64F9 CD70-specific CAR (other)
chain: EVQLLESGGGLVQPGESLRLSCEVSGFTFTSYAMSWVRQVPGKGLEWVSIISGVAFTTYYADSVKGRFTISRDHSKNTLYLQMNGLRAEDTAVYYCVKVDGEVYWGQGTLVTVSSGGGGSGGGGSGGGGSGGGGSDIQMTQSPSSLSASVGDRVTITCQASQDISNYLNWYQQKPGKAPKILIYGASNLETGVPSRFSGSGSGTDFTFAISSLQPEDVATYYCQQYDNFPITFGQGTRLEIKTTTPAPRPPTPAPTIASQPLSLRPEACRPAAGGAVHTRGLDFACDIYIWAPLAGTCGVLLLSLVITLYCKRGRKKLLYIFKQPFMRPVQTTQEEDGCSCRFPEEEEGGCELRVKFSRSADAPAYQQGQNQLYNELNLGRREEYDVLDKRRGRDPEMGGKPRRKNPQEGLYNELQKDKMAEAYSEIGMKGERRRGKGHDGLYQGLSTATKDTYDALHMQALPPR
notes: as for B1
On to B2, for which the “Activation ratio (WT/KO)” value in assay [1] came to 3.89. The “Protein binding (%)” value in assay [2] was 6.24%.

B3: P08A02 anti-CD70 scFv-Fc fusion (Fc fusion)
chain: EVQLVQSGAEVKKPGESLKISCKGSGYTFTNYWIAWVRQMPGKGLEWMGIIYPDGSDTRYSPSFQGQVTISADKSISTAYLQWSSLKASDTAMYYCARDITSWYYGEPAFDIWGQGTLVTVSSGGGGSGGGGSGGGGSGGGGSELQSVLTQPPSASGTPGQRVTISCSGSSSNIGSNYVYWYQQLPGTAPKLLIYRNNQRPSGVPDRFSGSKSGTSASLAISGLRSEDEADYYCATWDDSLGSPVFGTGTKLTVL
notes: scFv-Fc expressed in Expi293; not shown: part of the hinge and Fc from a modified human IgG2
Take B3: the equilibrium dissociation constant (Kd) in assay [3] came to 1200 nM.

B4: 72C2 CD70-specific CAR (other)
chain: QVQLVQSGAEVKKPGSSVKVSCEASGGTFITYAISWVRQAPGQGLEWMGGIIPFFGTANYAQKFQGRVTITADKSTSTASMELRSLRSEDTAMYYCAQWELFFFDFWGQGTPVTVSSGGGGSGGGGSGGGGSGGGGSEIVMTQSPDTLSVSPGERAILSCRASQSVSSNLAWYQQKPGQAPRLLIYSASTRASGIPARFSGSGSGTEFTLSISSLQSEDFAVYYCQQYDNWPPLTFGGGTKVEIKTTTPAPRPPTPAPTIASQPLSLRPEACRPAAGGAVHTRGLDFACDIYIWAPLAGTCGVLLLSLVITLYCKRGRKKLLYIFKQPFMRPVQTTQEEDGCSCRFPEEEEGGCELRVKFSRSADAPAYQQGQNQLYNELNLGRREEYDVLDKRRGRDPEMGGKPRRKNPQEGLYNELQKDKMAEAYSEIGMKGERRRGKGHDGLYQGLSTATKDTYDALHMQALPPR
With B4, in assay [1], the “Activation ratio (WT/KO)” value amounted to 6.18. Besides, the Protein binding (%) in assay [4] worked out at 0.09%.

B5: 45F11 CD70-specific CAR (other)
chain: QVQLRGSGPGLVKPSETLSLTCTVSDDSISVYYWSWIRQPAGKGLEWIGRVYSSGNINYNPSLESRVTMSVDTSKSRFSLNLSSVTAADTAVYYCARGLDAFDIWGQGTMVTVSSGGGGSGGGGSGGGGSGGGGSEIVMTQSPATLSMSLGERATLSCRASQSVSSSLAWYQQKPGQAPRLLIYGASTRATGIPARFGGSGSGTEFTLTISSLQSEDFAVYYCQQYINWPHFGGGTKVEIKTTTPAPRPPTPAPTIASQPLSLRPEACRPAAGGAVHTRGLDFACDIYIWAPLAGTCGVLLLSLVITLYCKRGRKKLLYIFKQPFMRPVQTTQEEDGCSCRFPEEEEGGCELRVKFSRSADAPAYQQGQNQLYNELNLGRREEYDVLDKRRGRDPEMGGKPRRKNPQEGLYNELQKDKMAEAYSEIGMKGERRRGKGHDGLYQGLSTATKDTYDALHMQALPPR
Turning to B5, the “Activation ratio (WT/KO)” value in assay [1] came out at 6.67. The Protein binding (%) in assay [4] worked out at 1.29%.

B6: P07D03 anti-CD70 scFv-Fc fusion (Fc fusion)
chain: EVQLVQSGAEVKKPGESLKISCKGSGYRFTSYWIGWVRQMPGKGLEWMGSIYPDDSDTRYSPSFQGQVTISADKSISTAYLQWSSLKASDTAMYYCASSTVDYPGYSYFDYWGQGTLVTVSSGGGGSGGGGSGGGGSGGGGSELQSVLTQPPSASGTPGQRVTISCSGSRSNIGSNYVYWYQQLPGTAPKLLIYRNNQRPSGVPDRFSGSKSGTSASLAISGLRSEDEADYYCASWDGSLSAVVFGTGTKLTVL
notes: as for B3
On to B6, for which the Kd in assay [3] stood at 1070 nM.

B7: P02B10 anti-CD70 scFv-Fc fusion (Fc fusion)
chain: EVQLLESGGGLVQPGGSLRLSCAASGFAFSNYAMSWVRQAPGKGLEWVSAIRGGGGSTYYADSVKGRFTISRDNSKNTLYLQMNSLRAEDTAVYYCARDFISGTWYPDYWGQGTLVTVSSGGGGSGGGGSGGGGSGGGGSELQSVLTQPPSASGTPGQRVTISCSGSSSNIGSNYVYWYQQLPGTAPKLLIYRNNQRPSGVPDRFSGSKSGTSASLAISGLRSEDEADYYCAAWDDSLSGVVFGGGTKLTVL
notes: as for B3
In the case of B7, the Kd in assay [3] was found to be 355 nM.

B8: 42C3 CD70-specific CAR (other)
chain: EVQLVESGGGLVQPGGSLRLSCAASGFTFRNSWMSWVRQAPGKGLEWVANIKRDGSEKYYVDSVKGRFTISRDNAKNSLYLQMNSLRAEDTAVYYCARDQTGSFDYWGQGTLVTVSSGGGGSGGGGSGGGGSGGGGSDVVMTQSPLSLPVTLGQPASISCRSSQSLVYSDENTYLNWFQQRPGQSLRRLIYQVSNRDSGVPDRFSGSGSGTDFTLKISRVEAEDVGVYFCMQGTYWPPTFGGGTKVEIKTTTPAPRPPTPAPTIASQPLSLRPEACRPAAGGAVHTRGLDFACDIYIWAPLAGTCGVLLLSLVITLYCKRGRKKLLYIFKQPFMRPVQTTQEEDGCSCRFPEEEEGGCELRVKFSRSADAPAYQQGQNQLYNELNLGRREEYDVLDKRRGRDPEMGGKPRRKNPQEGLYNELQKDKMAEAYSEIGMKGERRRGKGHDGLYQGLSTATKDTYDALHMQALPPR
Regarding B8, the “Activation ratio (WT/KO)” value in assay [1] stood at 5.25. In assay [4], the Protein binding (%) was found to be 1.48%.
